From US20230257436A1 (published 2023) come the findings set out here.

The target in test [1] is T1, human prosaposin (PSAP) secreted from ARPE-19 cells stably transfected with human PSAP cDNA (human) (UniProt P07602).
T1 sequence: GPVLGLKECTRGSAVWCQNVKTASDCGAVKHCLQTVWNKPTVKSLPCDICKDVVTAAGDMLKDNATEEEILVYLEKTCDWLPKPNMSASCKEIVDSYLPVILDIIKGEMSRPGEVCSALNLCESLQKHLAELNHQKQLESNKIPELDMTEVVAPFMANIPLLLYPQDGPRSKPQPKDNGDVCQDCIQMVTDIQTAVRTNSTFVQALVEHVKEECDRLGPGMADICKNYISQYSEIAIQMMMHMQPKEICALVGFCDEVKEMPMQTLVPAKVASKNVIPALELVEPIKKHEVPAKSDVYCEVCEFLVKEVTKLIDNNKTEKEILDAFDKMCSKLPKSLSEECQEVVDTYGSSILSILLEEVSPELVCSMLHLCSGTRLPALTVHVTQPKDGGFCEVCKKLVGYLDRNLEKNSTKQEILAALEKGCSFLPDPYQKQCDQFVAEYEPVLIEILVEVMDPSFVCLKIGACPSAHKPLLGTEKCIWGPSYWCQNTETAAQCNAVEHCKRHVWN
Briefly: western blot of purified PGRN/PSAP complexes. A general note: A western blot detects proteins with antibodies after separation by electrophoresis.

Test [2] has as its target T2, endogenous human progranulin (PGRN) in human plasma and CSF (human, UniProt P28799 18-593).
T2 sequence (looked up): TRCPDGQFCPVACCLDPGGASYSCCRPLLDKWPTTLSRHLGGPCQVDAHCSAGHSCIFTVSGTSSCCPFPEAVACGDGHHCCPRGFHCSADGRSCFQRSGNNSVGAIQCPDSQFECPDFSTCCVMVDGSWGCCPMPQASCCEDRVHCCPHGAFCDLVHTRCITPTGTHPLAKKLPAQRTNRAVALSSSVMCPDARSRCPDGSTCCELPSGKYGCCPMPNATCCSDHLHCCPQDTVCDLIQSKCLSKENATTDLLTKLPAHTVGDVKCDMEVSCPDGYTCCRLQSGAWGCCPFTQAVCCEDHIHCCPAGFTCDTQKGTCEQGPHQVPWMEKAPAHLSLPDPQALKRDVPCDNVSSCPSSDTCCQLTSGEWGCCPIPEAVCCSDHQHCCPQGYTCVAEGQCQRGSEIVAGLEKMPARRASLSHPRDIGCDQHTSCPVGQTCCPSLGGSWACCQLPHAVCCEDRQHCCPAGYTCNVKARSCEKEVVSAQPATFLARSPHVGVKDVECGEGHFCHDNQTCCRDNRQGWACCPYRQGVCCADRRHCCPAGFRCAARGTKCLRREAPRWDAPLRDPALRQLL
In words: sandwich ELISA on human plasma and CSF.

Test [3] addresses T3, commercially available recombinant PGRN (R&D Systems; PGRN-His, cat no. 2420-PG) (UniProt P28799 18-593, limits assumed).
T3 construct: The assay is titled 'Human PGRN/PSAP Complex Assay'; not shown: His tag
T3 sequence (looked up): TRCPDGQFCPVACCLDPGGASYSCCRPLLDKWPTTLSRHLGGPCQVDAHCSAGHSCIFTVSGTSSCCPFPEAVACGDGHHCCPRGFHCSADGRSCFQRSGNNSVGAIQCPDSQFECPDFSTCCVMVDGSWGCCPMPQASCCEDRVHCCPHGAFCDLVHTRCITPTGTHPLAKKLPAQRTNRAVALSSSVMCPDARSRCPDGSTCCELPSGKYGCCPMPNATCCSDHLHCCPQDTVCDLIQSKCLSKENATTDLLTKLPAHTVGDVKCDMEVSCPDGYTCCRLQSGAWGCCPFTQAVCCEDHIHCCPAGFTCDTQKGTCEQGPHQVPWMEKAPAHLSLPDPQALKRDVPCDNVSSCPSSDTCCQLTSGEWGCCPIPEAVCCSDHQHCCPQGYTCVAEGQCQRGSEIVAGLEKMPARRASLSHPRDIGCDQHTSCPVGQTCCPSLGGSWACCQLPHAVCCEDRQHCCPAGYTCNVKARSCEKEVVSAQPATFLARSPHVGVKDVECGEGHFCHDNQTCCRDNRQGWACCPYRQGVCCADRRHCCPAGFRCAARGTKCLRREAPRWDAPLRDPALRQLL
In words: mixing in vitro, western blot.

For “human progranulin (PGRN) secreted from ARPE-19 cells stably transfected with the human progranulin gene (pT2.CAn.PGRN plasmid) (from UniProt P28799 18-593) (ligand)”, the stoichiometry of PGRN and PSAP in the complex (PGRN:PSAP ratio) in test [1] came out at 1.

B1: endogenous human prosaposin (PSAP), as expressed by non-PSAP-transfected ARPE-19 derived cells and as present in human plasma and CSF (ligand, UniProt P07602 17-524, looked up)
chain: GPVLGLKECTRGSAVWCQNVKTASDCGAVKHCLQTVWNKPTVKSLPCDICKDVVTAAGDMLKDNATEEEILVYLEKTCDWLPKPNMSASCKEIVDSYLPVILDIIKGEMSRPGEVCSALNLCESLQKHLAELNHQKQLESNKIPELDMTEVVAPFMANIPLLLYPQDGPRSKPQPKDNGDVCQDCIQMVTDIQTAVRTNSTFVQALVEHVKEECDRLGPGMADICKNYISQYSEIAIQMMMHMQPKEICALVGFCDEVKEMPMQTLVPAKVASKNVIPALELVEPIKKHEVPAKSDVYCEVCEFLVKEVTKLIDNNKTEKEILDAFDKMCSKLPKSLSEECQEVVDTYGSSILSILLEEVSPELVCSMLHLCSGTRLPALTVHVTQPKDGGFCEVCKKLVGYLDRNLEKNSTKQEILAALEKGCSFLPDPYQKQCDQFVAEYEPVLIEILVEVMDPSFVCLKIGACPSAHKPLLGTEKCIWGPSYWCQNTETAAQCNAVEHCKRHVWN
As to B1, in test [2], the binding result is recorded as “binds”.

B2: human prosaposin (PSAP) secreted from ARPE-19 cells stably transfected with human PSAP cDNA (ligand)
chain: GPVLGLKECTRGSAVWCQNVKTASDCGAVKHCLQTVWNKPTVKSLPCDICKDVVTAAGDMLKDNATEEEILVYLEKTCDWLPKPNMSASCKEIVDSYLPVILDIIKGEMSRPGEVCSALNLCESLQKHLAELNHQKQLESNKIPELDMTEVVAPFMANIPLLLYPQDGPRSKPQPKDNGDVCQDCIQMVTDIQTAVRTNSTFVQALVEHVKEECDRLGPGMADICKNYISQYSEIAIQMMMHMQPKEICALVGFCDEVKEMPMQTLVPAKVASKNVIPALELVEPIKKHEVPAKSDVYCEVCEFLVKEVTKLIDNNKTEKEILDAFDKMCSKLPKSLSEECQEVVDTYGSSILSILLEEVSPELVCSMLHLCSGTRLPALTVHVTQPKDGGFCEVCKKLVGYLDRNLEKNSTKQEILAALEKGCSFLPDPYQKQCDQFVAEYEPVLIEILVEVMDPSFVCLKIGACPSAHKPLLGTEKCIWGPSYWCQNTETAAQCNAVEHCKRHVWN
notes: The protein was secreted into conditioned medium; no signal peptide limits are stated; also called ARPE-PSAP; PSAP (#7)
In the case of B2, the binding result in test [3] was “binds”.
